# Test results as given in patent US20230227838A1, “ENHANCED CELL SURVIVAL AGAINST BIOTIC AND ABIOTIC STRESSES THROUGH SALICYLICK ACID-INDUCED NPR1 CONDENSATES” (priority 2020, published 2023).
# Target: sim3-GFP (Arabidopsis thaliana) (UniProt P93002)
# Test: sim3-GFP IP, LC-MS/MS
# sim3-GFP (Arabidopsis thaliana), sequence (P93002 other isoform, or with tags, fused parts or gaps): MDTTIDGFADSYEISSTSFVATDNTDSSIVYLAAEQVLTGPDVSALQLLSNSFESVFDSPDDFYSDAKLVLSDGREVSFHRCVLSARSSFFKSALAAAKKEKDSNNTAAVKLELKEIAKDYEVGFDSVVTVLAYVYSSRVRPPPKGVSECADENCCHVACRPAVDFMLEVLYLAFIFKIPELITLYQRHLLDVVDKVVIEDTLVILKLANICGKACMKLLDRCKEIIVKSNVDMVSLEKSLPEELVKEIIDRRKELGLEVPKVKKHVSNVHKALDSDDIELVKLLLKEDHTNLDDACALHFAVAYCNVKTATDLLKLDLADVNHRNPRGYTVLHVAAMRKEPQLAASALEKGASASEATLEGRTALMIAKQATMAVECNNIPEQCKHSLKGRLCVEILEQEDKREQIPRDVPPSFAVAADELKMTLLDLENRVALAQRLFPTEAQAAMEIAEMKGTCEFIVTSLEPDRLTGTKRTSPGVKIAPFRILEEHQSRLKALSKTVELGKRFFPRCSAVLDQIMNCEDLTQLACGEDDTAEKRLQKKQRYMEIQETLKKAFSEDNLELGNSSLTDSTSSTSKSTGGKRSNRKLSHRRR
row,Normalized Fold Change: SA vs Mock,Binder
1,2.62 fold,"ATMEK4, ATMKK4, MKK4, mitogen-activated protein kinase kinase 4 (protein, UniProt O80397 1-366, looked up) Mitogen-activated protein kinase kinase 4: MRPIQSPPGVSVPVKSRPRRRPDLTLPLPQRDVSLAVPLPLPPTSGGSGGSSGSAPSSGGSASSTNTNSSIEAKNYSDLVRGNRIGSGAGGTVYKVIHRPSSRLYALKVIYGNHEETVRRQICREIEILRDVNHPNVVKCHEMFDQNGEIQVLLEFMDKGSLEGAHVWKEQQLADLSRQILSGLAYLHSRHIVHRDIKPSNLLINSAKNVKIADFGVSRILAQTMDPCNSSVGTIAYMSPERINTDLNQGKYDGYAGDIWSLGVSILEFYLGRFPFPVSRQGDWASLMCAICMSQPPEAPATASPEFRHFISCCLQREPGKRRSAMQLLQHPFILRASPSQNRSPQNLHQLLPPPRPLSSSSSPTT"
2,2.2 fold,"PDIL2-2, PDI-like 2-2 (protein, UniProt Q9MAU6 27-447, looked up) Protein disulfide-isomerase like 2-2: LYGSSSPVLQLTPSNFKSKVLNSNGVVLVEFFAPWCGHCQSLTPTWEKVASTLKGIATVAAIDADAHKSVSQDYGVRGFPTIKVFVPGKPPIDYQGARDAKSISQFAIKQIKALLKDRLDGKTSGTKNGGGSSEKKKSEPSASVELNSSNFDELVTESKELWIVEFFAPWCGHCKKLAPEWKKAANNLKGKVKLGHVNCDAEQSIKSRFKVQGFPTILVFGSDKSSPVPYEGARSASAIESFALEQLESNAGPAEVTELTGPDVMEDKCGSAAICFVSFLPDILDSKAEGRNKYLEMLLSVADKFKKDPYGFVWVAAGKQPDLEKRVGVGGYGYPAMVALNAKKGAYAPLKSGFEVKHLKDFVKEAAKGGKGNLPIDGTMEIVKTEAWDGKDGEVVDADEFSLEDLMGNDDEASTESKDDL"
3,3.13 fold,"PNG1, peptide-N-glycanase 1 (protein, UniProt Q9FGY9 1-721, looked up) Peptide-N(4)-(N-acetyl-beta-glucosaminyl)asparagine amidase: MVARKFVVRHEDSSFDVDYNTEDGLEVLRFLIFSLTLVPPEEQKIVAEDDNRLVSDESDLASLSERLRLVSVGEDSVENSDAEMLKSDEELARMLQAEEDAIMFQQFVAARDNGEFEGRIRPYVSQVLMYEDPVRQDAARKTVPKDELEEKALVSLAKEGNFEPSKEERDYAFLLQLLFWFKKSFRWVNEPPCDFCGNKTIGQGMGNPLTSELAYGANRVEIYRCTMCPTTTRFPRYNDPLKLVETKKGRCGEWANCFTLYCRTFGYDSRLIMDFTDHVWTECYSHSLKRWIHLDPCEGVYDKPMLYEKGWNKKLNYVIAISKDGVCDVTKRYTKKWHEVLSRRTLTTESSLQDGLRTLTRERRRSLMFESLSKLELRDRNEQEELERNLHSADNASVSLPGRQSGDREWRIMRSEFGSDENSSVSSSSCPVRKCVDDHVTNIYDSFLPILTQFVEDGLPVARTNEVLKMIKQVLVDLKNAPYKTRKARLTLDSDNSSSFPEQFLPALGDLLLALSLKSERDTNGKSVTISVDGKLTKTAIALPVALDALRELVADLSKYQNLNKDSLSFPLVKQNRVCSGSVLASGEELPSGIATAAFDGIQESKWEEPNGAKGCWIVYKTLYNQMHQLIAYELMSANDAPERDPKDWILEGSNDGGSTWCVLDKQTSQVFEERFQRKSYKITTPGFQANLFRFRFLSVRDVNSTSRLQLGSIDLYRSHQ"
4,3.95 fold,"UBC36, ubiquitin-conjugating enzyme 36 (protein, UniProt Q9FZ48 1-153, looked up) Ubiquitin-conjugating enzyme E2 36: MANSNLPRRIIKETQRLLSEPAPGISASPSEENMRYFNVMILGPTQSPYEGGVFKLELFLPEEYPMAAPKVRFLTKIYHPNIDKLGRICLDILKDKWSPALQIRTVLLSIQALLSAPNPDDPLSENIAKHWKSNEAEAVETAKEWTRLYASGA"
5,2.07 fold,"BSL2, BRI1 suppressor 1 (BSU1)-like 2 (protein, UniProt Q9SJF0 1-1018, looked up) Serine/threonine-protein phosphatase BSL2: MDEDSSMVADNDQDREFQSLDGGQSPSPMERETPQQMNDQSPPPEGGSVPTPPPSDPNPATSQQQAAAVVGQEQQPALVVGPRCAPTYSVVDAMMDKKEDGPGPRCGHTLTAVPAVGDEGTPGYIGPRLVLFGGATALEGNSGGTGTPTSAGSAGIRLAGATADVHCYDVLSNKWTRLTPFGEPPTPRAAHVATAVGTMVVIQGGIGPAGLSAEDLHVLDLTQQRPRWHRVVVQGPGPGPRYGHVMALVGQRYLMAIGGNDGKRPLADVWALDTAAKPYEWRKLEPEGEGPPPCMYATASARSDGLLLLCGGRDANSVPLASAYGLAKHRDGRWEWAIAPGVSPSSRYQHAAVFVNARLHVSGGALGGGRMVEDSSSVAVLDTAAGVWCDTKSVVTSPRTGRYSADAAGGDASVELTRRCRHAAAAVGDLIFIYGGLRGGVLLDDLLVAEDLAAAETTYAASHAAAAAATNSPPGRLPGRYGFSDERNRELSESAADGAVVLGSPVAPPVNGDMHTDISPENALLPGTRRTNKGVEYLVEASAAEAEAISATLAAAKARQVNGEVELPDRDCGAEATPSGKPTFSLIKPDSMGSMSVTPAGIRLHHRAVVVAAETGGALGGMVRQLSIDQFENEGRRVSYGTPESATAARKLLDRQMSINSVPKKVIAHLLKPRGWKPPVRRQFFLDCNEIADLCDSAERIFASEPTVLQLKAPIKIFGDLHGQFGDLMRLFDEYGSPSTAGDISYIDYLFLGDYVDRGQHSLETISLLLALKVEYQHNVHLIRGNHEAADINALFGFRIECIERMGERDGIWVWHRINRLFNWLPLAASIEKKIICMHGGIGRSINHVEQIENIQRPITMEAGSIVLMDLLWSDPTENDSVEGLRPNARGPGLVTFGPDRVMEFCNNNDLQLIVRAHECVMDGFERFAQGHLITLFSATNYCGTANNAGAILVLGRDLVVVPKLIHPLPPALSSPETSPERHIEDTWMQELNANRPATPTRGRPQNSNDRGGSLAWM"
6,2.01 fold,"ALDH7B4, aldehyde dehydrogenase 7B4 (protein, UniProt Q9SYG7 1-508, looked up) Aldehyde dehydrogenase family 7 member B4: MGSANNEYEFLSEIGLTSHNLGSYVAGKWQANGPLVSTLNPANNQPIAQVVEASLEDYEQGLKACEEAAKIWMQVTAPKRGDIVRQIGDALRSKLDYLGRLLSLEMGKILAEGIGEVQEVIDMCDFAVGLSRQLNGSVIPSERPNHMMLEMWNPLGIVGVITAFNFPCAVLGWNACIALVCGNCVVWKGAPTTPLITIAMTKLVAEVLEKNNLPGAIFTAMCGGAEIGEAIAKDTRIPLVSFTGSSRVGSMVQQTVNARSGKTLLELSGNNAIIVMDDADIQLAARSVLFAAVGTAGQRCTTCRRLLLHESVYDKVLEQLLTSYKQVKIGNPLEKGTLLGPLHTPESKKNFEKGIEVIKSQGGKILTGGKAVEGEGNFVEPTIIEISADAAVVKEELFAPVLYVLKFKSFGEAVAINNSVPQGLSSSIFTRNPENIFRWIGPLGSDCGIVNVNIPTNGAEIGGAFGGEKATGGGREAGSDSWKQYMRRSTCTINYGNELPLAQGINFG"
7,6.22 fold,"AtHSBP, HSBP, heat shock factor binding protein (protein, UniProt Q8GW48 1-86, looked up) Heat shock factor-binding protein: MDGHDSEDTKQSTADMTAFVQNLLQQMQTRFQTMSDSIITKIDDMGGRINELEQSINDLRAEMGVEGTPPPASKSGDEPKTPASSS"
8,4.03 fold,"MEK1 (protein, UniProt Q94A06 1-354, looked up) Mitogen-activated protein kinase kinase 1: MNRGSLCPNPICLPPLEQSISKFLTQSGTFKDGDLRVNKDGIQTVSLSEPGAPPPIEPLDNQLSLADLEVIKVIGKGSSGNVQLVKHKLTQQFFALKVIQLNTEESTCRAISQELRINLSSQCPYLVSCYQSFYHNGLVSIILEFMDGGSLADLLKKVGKVPENMLSAICKRVLRGLCYIHHERRIIHRDLKPSNLLINHRGEVKITDFGVSKILTSTSSLANSFVGTYPYMSPERISGSLYSNKSDIWSLGLVLLECATGKFPYTPPEHKKGWSSVYELVDAIVENPPPCAPSNLFSPEFCSFISQCVQKDPRDRKSAKELLEHKFVKMFEDSDTNLSAYFTDAGSLIPPLAN"
9,15.6 fold,"DMR6, 2-oxoglutarate (2OG) and Fe(II)-dependent oxygenase superfamily protein (protein, UniProt Q9FLV0 1-341, looked up) Protein DOWNY MILDEW RESISTANCE 6: MAAKLISTGFRHTTLPENYVRPISDRPRLSEVSQLEDFPLIDLSSTDRSFLIQQIHQACARFGFFQVINHGVNKQIIDEMVSVAREFFSMSMEEKMKLYSDDPTKTTRLSTSFNVKKEEVNNWRDYLRLHCYPIHKYVNEWPSNPPSFKEIVSKYSREVREVGFKIEELISESLGLEKDYMKKVLGEQGQHMAVNYYPPCPEPELTYGLPAHTDPNALTILLQDTTVCGLQILIDGQWFAVNPHPDAFVINIGDQLQALSNGVYKSVWHRAVTNTENPRLSVASFLCPADCAVMSPAKPLWEAEDDETKPVYKDFTYAEYYKKFWSRNLDQEHCLENFLNN"
10,8.08 fold,"UGT73B2, UDP-glucosyltransferase 73B2 (protein, UniProt Q94C57 1-483, looked up) UDP-glucosyl transferase 73B2: MGSDHHHRKLHVMFFPFMAYGHMIPTLDMAKLFSSRGAKSTILTTSLNSKILQKPIDTFKNLNPGLEIDIQIFNFPCVELGLPEGCENVDFFTSNNNDDKNEMIVKFFFSTRFFKDQLEKLLGTTRPDCLIADMFFPWATEAAGKFNVPRLVFHGTGYFSLCAGYCIGVHKPQKRVASSSEPFVIPELPGNIVITEEQIIDGDGESDMGKFMTEVRESEVKSSGVVLNSFYELEHDYADFYKSCVQKRAWHIGPLSVYNRGFEEKAERGKKANIDEAECLKWLDSKKPNSVIYVSFGSVAFFKNEQLFEIAAGLEASGTSFIWVVRKTKDDREEWLPEGFEERVKGKGMIIRGWAPQVLILDHQATGGFVTHCGWNSLLEGVAAGLPMVTWPVGAEQFYNEKLVTQVLRTGVSVGASKHMKVMMGDFISREKVDKAVREVLAGEAAEERRRRAKKLAAMAKAAVEEGGSSFNDLNSFMEEFSS"
11,57 fold,"ELI3-2, elicitor-activated gene 3-2 (protein, UniProt Q02972 1-359, looked up) Cinnamyl alcohol dehydrogenase 8: MGKVLQKEAFGLAAKDNSGVLSPFSFTRRETGEKDVRFKVLFCGICHSDLHMVKNEWGMSTYPLVPGHEIVGVVTEVGAKVTKFKTGEKVGVGCLVSSCGSCDSCTEGMENYCPKSIQTYGFPYYDNTITYGGYSDHMVCEEGFVIRIPDNLPLDAAAPLLCAGITVYSPMKYHGLDKPGMHIGVVGLGGLGHVGVKFAKAMGTKVTVISTSEKKRDEAINRLGADAFLVSRDPKQIKDAMGTMDGIIDTVSATHSLLPLLGLLKHKGKLVMVGAPEKPLELPVMPLIFERKMVMGSMIGGIKETQEMIDMAGKHNITADIELISADYVNTAMERLEKADVRYRFVIDVANTLKPNPNL"
12,19.6 fold,"GPX8, glutathione peroxidase 8 (protein, UniProt Q8LBU2 1-167, looked up) Probable glutathione peroxidase 8: MATKEPESVYELSIEDAKGNNLALSQYKDKVLLIVNVASKCGMTNSNYTELNELYNRYKDKGLEILAFPCNQFGDEEPGTNDQITDFVCTRFKSEFPIFNKIEVNGENASPLYKFLKKGKWGIFGDDIQWNFAKFLVDKNGQAVQRYYPTTSPLTLEHDIKNLLNIS"
